How the values were obtained:
[1] = biological target: T1, monkey FGFR3 recombinant protein (90313-C02H, Sino Biological) (cynomolgus monkey, UniProt A0A2K5V1U5 23-376); assay: ELISA on cynoFGFR3
T1 construct: Bought recombinant antigen; also called cynomolgus monkey FGFR3; cyno FGFR3
T1 sequence: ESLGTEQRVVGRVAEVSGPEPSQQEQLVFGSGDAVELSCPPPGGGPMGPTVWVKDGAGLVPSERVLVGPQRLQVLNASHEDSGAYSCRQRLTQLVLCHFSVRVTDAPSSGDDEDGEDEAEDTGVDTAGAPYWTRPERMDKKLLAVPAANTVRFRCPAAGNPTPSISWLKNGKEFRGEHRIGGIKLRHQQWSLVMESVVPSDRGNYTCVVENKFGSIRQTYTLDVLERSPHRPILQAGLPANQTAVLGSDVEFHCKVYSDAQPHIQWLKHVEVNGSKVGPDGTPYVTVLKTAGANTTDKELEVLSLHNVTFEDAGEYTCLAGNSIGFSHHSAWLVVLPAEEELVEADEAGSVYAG
Protocol: (§1) Affinity ELISA was performed to determine the binding ability of the produced antibody (IgG) to the FGFR3 antigen. A 96-well plate (4° C., overnight) was coated with […] of FGFR3 antigen and blocked with 3% skim milk (PBS) (room temperature, 1 hour). Then, the plate was treated with previously serially diluted antibody samples in duplicate and triplicate, and reacted at room temperature for 1 hour. Then, the result was washed with PBST 2 to 3 times, treated with the HRP-conjugated anti-human Fab antibody diluted in skim milk (room temperature, 1 hour), and washed again with PBST, and a color reaction (TMB substrate) was performed. Then, O.D. was measured at 450 nm.
(§2) The binding ability of the produced antibody (IgG) to human FGFR3 IIIb (1264-FR-050, R&D), IIIc (766-FR-050, R&D), mouse FGFR3 (9089-FR, R&D), and monkey FGFR3 (90313-C02H, Sino Biological) antigens was determined in the same manner as above.
(§3) The epitope domain mapping performed above was also performed on the affinity matured antibody F309 #SSM236 (hereinafter referred to as AMB302 #1.2). […] The antibody was also found to have specific binding ability to human/cyno FGFR3 (FIG. 17).

[2] = biological target: T2, human FGFR3 IIIc recombinant protein (766-FR-050, R&D) (human, UniProt P22607 23-375); assay: ELISA on humanFGFR3-IIIc
T2 construct: Bought recombinant antigen; also called FGFR3-IIIc (Human)
T2 sequence (looked up): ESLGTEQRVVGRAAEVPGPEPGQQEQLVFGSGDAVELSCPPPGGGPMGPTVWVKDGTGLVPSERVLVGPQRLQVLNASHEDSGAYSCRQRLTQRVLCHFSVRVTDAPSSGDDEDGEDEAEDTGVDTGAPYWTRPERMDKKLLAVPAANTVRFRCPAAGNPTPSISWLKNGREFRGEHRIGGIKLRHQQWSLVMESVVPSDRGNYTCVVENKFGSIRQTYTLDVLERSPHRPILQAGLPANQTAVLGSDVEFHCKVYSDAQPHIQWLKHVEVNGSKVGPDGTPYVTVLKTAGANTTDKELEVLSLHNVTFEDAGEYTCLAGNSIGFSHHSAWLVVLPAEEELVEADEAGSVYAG
Protocol: as §1, §2, §3

[3] = biological target: T3, FGFR3 recombinant protein (isoform not given) (Homo sapiens (Human), UniProt P22607 23-375, limits assumed); assay: affinity ELISA on hFGFR3, lower left panel
T3 construct: also called FGFR3 antigen
T3 sequence: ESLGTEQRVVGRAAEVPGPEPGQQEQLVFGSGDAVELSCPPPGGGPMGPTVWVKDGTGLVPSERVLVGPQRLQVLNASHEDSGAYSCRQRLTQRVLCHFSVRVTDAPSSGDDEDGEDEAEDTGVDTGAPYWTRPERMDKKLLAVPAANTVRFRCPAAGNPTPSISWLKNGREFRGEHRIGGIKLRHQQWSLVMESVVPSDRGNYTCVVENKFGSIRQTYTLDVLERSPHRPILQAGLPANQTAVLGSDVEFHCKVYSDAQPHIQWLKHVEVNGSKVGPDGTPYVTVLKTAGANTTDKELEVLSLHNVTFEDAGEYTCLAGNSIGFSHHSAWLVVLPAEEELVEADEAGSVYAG
Protocol: as §1
The antigen affinity of the synthesized ADC sample (TOPOI-conjugated ADC) was determined by ELISA and the determination was performed in the same manner as the affinity ELISA performed in the present invention. […] In addition, the high purity physical properties of the prepared ADC were identified through SEC-HPLC analysis.

[4] = biological target: T4, FGFR3 Ig domain II with Fc tag (UniProt P22607 151-244); assay: FGFR3 Domain ELISA, AMB302#1.2, bar Domain#2
T4 construct: domain: FGFR3 Ig domain II; Recombinant domain made in mammalian cells; also called domain No. 2
T4 sequence: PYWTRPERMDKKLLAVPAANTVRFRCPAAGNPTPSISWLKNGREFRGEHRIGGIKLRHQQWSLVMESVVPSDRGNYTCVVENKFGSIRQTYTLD
Protocol: (§4) FGFR3 is composed of three domains, so each domain (FGFR3 Ig domain I, domain II, domain III) is attached with an Fc tag to analyze the FGFR3-binding domain of the discovered antibody, and produced and purified through a mammalian cell protein expression system (FIG. 9C). Analysis of the binding ability of the antibody to the purified domain was performed in the same manner as the ELISA described above. 1 μg/ml of an antigen was coated and treated with the antibody to induce a TMB color reaction. […] However, the epitope of the comparative antibody is included in domain No. 2, which was conducted according to the present invention. In addition, ligands of FGF1 and FGF9, and FGFR3 have been reported to bind to Ig domain II and domain III of FGFR3. Based on this, competition ELISA assay was conducted. […] This supports binding of F309 antibody to the aforementioned FGFR3 Ig domain I (FIG. 9A).
as §3

Domain#3 = biological target: T5, Domain#3 (human, UniProt P22607); assay: FGFR3 Domain ELISA, AMB302#1.2, bar Domain#3
T5 construct: single domain fused to human IgG1 Fc; also called FGFR3 Domain 3; FGFR3 Ig domain III with Fc tag
T5 sequence (Fc fusion chain): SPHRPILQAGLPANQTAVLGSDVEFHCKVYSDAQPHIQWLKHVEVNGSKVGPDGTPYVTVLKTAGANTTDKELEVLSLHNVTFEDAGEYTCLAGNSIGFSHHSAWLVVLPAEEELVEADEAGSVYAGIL
Protocol: as §4, §3

[5] = biological target: T1, monkey FGFR3 recombinant protein …; assay: SPR (Biacore), antigen immobilised 92 RU, antibody injected
[6] = biological target: T2, human FGFR3 IIIc recombinant protein …; assay: SPR (Biacore), antigen immobilised 74.5 RU, antibody injected
[7] = biological target: T6, human FGFR3 IIIb recombinant protein (1264-FR-050, R&D) (human, UniProt P22607-2 23-377); assay: SPR (Biacore), antigen immobilised 276.2 RU, antibody injected
T6 construct: Bought recombinant antigen; also called rhFGFR3-IIIb; FGFR3-IIIb (Human)
T6 sequence (looked up): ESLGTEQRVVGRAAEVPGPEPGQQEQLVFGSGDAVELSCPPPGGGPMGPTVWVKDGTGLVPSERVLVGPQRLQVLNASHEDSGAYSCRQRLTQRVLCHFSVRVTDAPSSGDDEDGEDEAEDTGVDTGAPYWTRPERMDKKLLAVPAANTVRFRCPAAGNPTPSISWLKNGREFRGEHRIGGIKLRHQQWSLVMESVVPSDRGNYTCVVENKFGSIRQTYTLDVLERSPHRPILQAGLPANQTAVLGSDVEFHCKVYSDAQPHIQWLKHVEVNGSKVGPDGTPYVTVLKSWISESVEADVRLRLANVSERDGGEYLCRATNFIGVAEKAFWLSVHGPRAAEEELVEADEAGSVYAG

[8] = biological target: T6, human FGFR3 IIIb recombinant protein …; assay: direct-binding ELISA on rhFGFR3-IIIb, 2' screening, plate 1 (row head prints IC50)

- EC50 (read off the curve) [1]: ~0.3 nM
- EC50 (read off the curve) [2]: ~0.3 nM
- EC50 (read off the curve) [3]: ~0.4 nM
- binding result [4]: no binding
- binding result (Domain#3): no binding
- Kd [5]: 0.755 nM
- Kd [6]: 0.309 nM
- Kd [7]: 0.59 nM
- EC50 [8]: 0.753 nM
B1: F309#SSM236 (antibody, V domains shown)
VH: EVQLLESGGGLVQPGGSLRLSCAASGFTFSSYDMSWVRQAPGKGLEWVSGIYSGDGSIYYADSVKGRFTISRDNSKNTLYLQMNSLRAEDTAVYYCAKDGPMNEESRFDYWGQGTLVTVSS
VL: QSVLTQPPSASGTPGQRVTISCSGSSSNIGNNYVSWYQQLPGTAPKLLIYADSKRPSGVPDRFSGSKSGTSASLAISGLRSEDEADYYCASWDYSLSGYVFGGGTKLTVL
notes: also called AMB302 #1.2; AMB302#1.2
